How the values were obtained:
[1] = target: GFP-hGS15 (human) (UniProt Q9NYM9); test: co-IP; GFP IP on GBP (GFP binding protein) beads from lysates of transfected HEK293T cells (50 mM Tris pH 7.4, 150 mM NaCl, 1% Triton X-100), 2 h at room temperature; blotted for COG8, Myc and GFP
[2] = target: GFP-hGS15 (human) (UniProt Q9NYM9); test: co-IP; HEK293T cells with lobe B-myc and a GFP-tagged partner fractionated into P15, P100 and S100; membrane pellets solubilised with Triton X-100 and incubated with GBP-beads; blotted with anti-Myc and anti-GFP
[3] = target: T1, lobe B complex isolated from HEK cells (GFP-hCOG5 + hCOG6/8-3Myc + hCOG7-3Myc) (human, UniProt Q9UP83 1-860; Q9Y2V7 1-657; P83436 1-770; Q96MW5 1-612); test: pull-down; GST-tagged GS15 proteins held on Glutathione Sepharose 4B; whole COG complex or lobe B isolated from HEK cells added in 25 mM HEPES-KOH pH 7.4, 25 mM KCl, 2.5 mM magnesium acetate, 1 mM DTT, 0.05% Tween-20, 1 hour at room temperature; Myc blot; conditions: both partners purified
T1 construct: Human COG5 in pEGFP-C1; Human COG6-3Myc in MultiLabel vector; Human COG7 in pCMV-3Myc; Human COG8-3Myc in MultiLabel vector; Elution from TALON by imidazole probably releases His6-GBP together with the GFP-tagged complex; also called lobe B sub-complex; purified lobe B; source: HEK293T, transfected; isolated by Sephacryl S-300 HR gel filtration and TALON-GBP beads, eluted with 350 mM imidazole, …

[4] = target: T2, whole COG complex isolated from HEK cells (GFP-mCOG3 + hCOG1/2/4-3Myc + hCOG6/8-3Myc + hCOG5/7-3Myc) (human | mouse, UniProt Q8WTW3 1-980; Q14746 1-738; Q8CI04 1-820; Q9H9E3 1-785; Q9UP83 1-860; Q9Y2V7 …); test: as above; conditions: both partners purified
T2 construct: Human COG1-3Myc in MultiLabel vector; Human COG2Streptag-3Myc in MultiLabel vector; Mouse COG3 in pEGFP-C1; Human COG4-3Myc in MultiLabel vector; Human COG5-3Myc in MultiLabel vector; Human COG6-3Myc in MultiLabel vector; Human COG7-3Myc in MultiLabel vector; Human COG8-3Myc in MultiLabel vector; Elution from TALON by imidazole probably releases His6-GBP together with the GFP-tagged complex; also …

T1 sequence (Q9UP83 whole entry, chain 1 of 4): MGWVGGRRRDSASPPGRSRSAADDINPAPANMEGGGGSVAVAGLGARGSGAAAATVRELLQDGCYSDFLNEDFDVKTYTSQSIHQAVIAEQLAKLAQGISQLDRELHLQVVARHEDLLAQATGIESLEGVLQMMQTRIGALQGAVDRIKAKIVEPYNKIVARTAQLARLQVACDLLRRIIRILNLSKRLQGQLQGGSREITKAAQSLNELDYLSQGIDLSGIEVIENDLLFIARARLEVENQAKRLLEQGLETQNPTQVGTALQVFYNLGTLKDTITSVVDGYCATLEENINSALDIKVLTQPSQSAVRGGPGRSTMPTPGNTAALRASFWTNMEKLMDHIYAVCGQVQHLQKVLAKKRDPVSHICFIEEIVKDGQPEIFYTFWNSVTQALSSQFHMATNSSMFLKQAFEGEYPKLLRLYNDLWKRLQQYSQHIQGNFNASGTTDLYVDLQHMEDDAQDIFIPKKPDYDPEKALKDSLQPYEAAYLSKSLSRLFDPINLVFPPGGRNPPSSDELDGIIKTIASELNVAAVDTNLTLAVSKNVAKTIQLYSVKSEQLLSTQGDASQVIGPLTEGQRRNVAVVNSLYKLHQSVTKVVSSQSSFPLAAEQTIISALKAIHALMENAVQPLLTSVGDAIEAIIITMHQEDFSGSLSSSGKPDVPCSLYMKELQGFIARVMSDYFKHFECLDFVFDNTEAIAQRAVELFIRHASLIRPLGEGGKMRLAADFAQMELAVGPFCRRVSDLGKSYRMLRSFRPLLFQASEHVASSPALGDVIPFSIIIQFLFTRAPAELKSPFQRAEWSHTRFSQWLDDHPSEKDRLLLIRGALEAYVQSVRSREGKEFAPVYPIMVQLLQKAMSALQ
T1 sequence (Q9Y2V7 whole entry, chain 2 of 4): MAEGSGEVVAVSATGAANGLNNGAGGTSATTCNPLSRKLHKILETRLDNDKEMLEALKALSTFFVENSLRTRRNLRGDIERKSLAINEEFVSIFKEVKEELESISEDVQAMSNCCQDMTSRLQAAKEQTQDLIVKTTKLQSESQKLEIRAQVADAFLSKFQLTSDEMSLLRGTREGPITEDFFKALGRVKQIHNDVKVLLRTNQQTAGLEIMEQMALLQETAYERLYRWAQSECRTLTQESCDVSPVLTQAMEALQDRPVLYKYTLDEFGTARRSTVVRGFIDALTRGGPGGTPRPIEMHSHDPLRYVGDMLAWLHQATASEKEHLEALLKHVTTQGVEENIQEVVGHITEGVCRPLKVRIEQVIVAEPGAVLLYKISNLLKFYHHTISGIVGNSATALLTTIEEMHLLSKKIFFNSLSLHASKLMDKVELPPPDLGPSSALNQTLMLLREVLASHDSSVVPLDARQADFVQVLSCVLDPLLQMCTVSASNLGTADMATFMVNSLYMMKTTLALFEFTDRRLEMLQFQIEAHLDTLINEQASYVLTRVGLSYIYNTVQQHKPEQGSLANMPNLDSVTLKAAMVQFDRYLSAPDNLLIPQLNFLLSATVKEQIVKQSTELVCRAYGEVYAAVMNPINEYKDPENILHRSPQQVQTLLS
T1 sequence (P83436 whole entry, chain 3 of 4): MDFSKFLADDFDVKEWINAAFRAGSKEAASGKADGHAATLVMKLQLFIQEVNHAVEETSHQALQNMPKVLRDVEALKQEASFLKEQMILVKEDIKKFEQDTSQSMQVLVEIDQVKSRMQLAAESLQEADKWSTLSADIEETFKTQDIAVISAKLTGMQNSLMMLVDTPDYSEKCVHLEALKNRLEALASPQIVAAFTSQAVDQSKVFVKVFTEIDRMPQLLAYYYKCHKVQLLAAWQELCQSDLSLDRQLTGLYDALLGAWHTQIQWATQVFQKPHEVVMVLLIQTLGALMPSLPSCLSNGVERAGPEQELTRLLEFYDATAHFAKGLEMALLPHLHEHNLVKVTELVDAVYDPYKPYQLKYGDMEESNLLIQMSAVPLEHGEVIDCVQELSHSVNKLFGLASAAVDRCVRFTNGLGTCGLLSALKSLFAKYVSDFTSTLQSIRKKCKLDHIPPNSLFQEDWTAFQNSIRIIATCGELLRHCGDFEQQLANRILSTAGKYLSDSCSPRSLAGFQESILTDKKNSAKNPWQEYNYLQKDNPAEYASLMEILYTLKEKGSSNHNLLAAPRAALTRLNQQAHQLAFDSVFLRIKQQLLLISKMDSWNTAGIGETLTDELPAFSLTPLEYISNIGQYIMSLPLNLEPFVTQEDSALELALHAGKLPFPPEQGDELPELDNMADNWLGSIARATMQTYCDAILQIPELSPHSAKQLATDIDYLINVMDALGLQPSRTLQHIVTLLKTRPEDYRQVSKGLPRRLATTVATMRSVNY
T1 sequence (Q96MW5 whole entry, chain 4 of 4): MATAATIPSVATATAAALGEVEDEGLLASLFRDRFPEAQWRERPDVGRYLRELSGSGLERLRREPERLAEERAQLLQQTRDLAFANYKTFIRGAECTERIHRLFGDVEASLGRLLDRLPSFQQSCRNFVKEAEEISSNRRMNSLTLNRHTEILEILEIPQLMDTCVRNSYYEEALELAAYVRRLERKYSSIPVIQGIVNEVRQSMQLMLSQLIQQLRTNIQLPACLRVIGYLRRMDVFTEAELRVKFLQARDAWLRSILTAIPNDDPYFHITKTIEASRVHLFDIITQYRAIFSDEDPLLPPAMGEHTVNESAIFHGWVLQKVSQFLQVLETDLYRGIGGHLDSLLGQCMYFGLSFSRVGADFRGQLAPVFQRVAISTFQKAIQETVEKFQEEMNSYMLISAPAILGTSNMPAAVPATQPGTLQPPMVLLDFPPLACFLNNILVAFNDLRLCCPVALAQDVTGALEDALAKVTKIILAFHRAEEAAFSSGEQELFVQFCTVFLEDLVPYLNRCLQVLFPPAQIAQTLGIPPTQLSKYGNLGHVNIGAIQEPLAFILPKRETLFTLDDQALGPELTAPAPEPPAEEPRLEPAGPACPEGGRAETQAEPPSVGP

Molecule: COG1-HA-GS-COG8 hybrid (hCOG1-HA-GS-TEV-hCOG8-3Myc)
- co-IP efficiency (percent of input) [1]: 0.3%

Molecule: lobe B sub-complex, myc-tagged (hCOG5-3Myc, hCOG6-3Myc, hCOG7-3Myc, hCOG8-3Myc), Q9UP83 1-860; Q9Y2V7 1-657; P83436 1-770; Q96MW5 1-612
- percent pull-down [2]: < 12%

B1: His-hGS15-GST, full-length (FL) GS15 cytoplasmic domain (aa 1–86) (domain or fragment, human, UniProt Q9NYM9 1-86, looked up)
chain: MADWARAQSPGAVEEILDRENKRMADSLASKVTRLKSLALDIDRDAEDQNRYLDGMDSDFTSMTSLLTGSVKRFSTMARSGQDNRK
notes: Human GS15 cytoplasmic domain (aa 1–86) in pET28a; also called GST-tagged full-length (FL) GS15 cytoplasmic domain; not shown: GST, C-terminal, kept
- binding result [3]: binds
- binding result [4]: binds

— article PMC4935880, “COG lobe B sub-complex engages v-SNARE GS15 and functions via regulated interaction with lobe A sub-complex” (Scientific Reports, 2016)
